Consider 23 molecules from patent publication US20230220042A1 (SHANGHAI JIAO TONG UNIVERSITY SCHOOL OF MEDICINE, published 2023).

B1: human IgG2 anti-mouse CD40 surface displayed antibody, Fc mutant P271G/S298G (antibody, name in EU numbering)
light chain (with the P2A rest): DTVLTQSPALAVSPGERVTISCRASDSVSTLMHWYQQKPGQQPKLLIYLASHLESGVPARFSGSGSGTDFTLTIDPVEADDTATYYCQQSWNDPWTFGGGTKLELKRTVAAPSVFIFPPSDEQLKSGTASVVCLLNNFYPREAKVQWKVDNALQSGNSQESVTEQDSKDSTYSLSSTLTLSKADYEKHKVYACEVTHQGLSSPVTKSFNRGECGSGATNFSLLKQAGDVEENPG
heavy chain: EVQLVESDGGLVQPGRSLKLPCAASGFTFSDYYMAWVRQAPTKGLEWVASISYDGSSTYYRDSVKGRFTISRDNAKSTLYLQMDSLRSEDTATYYCGRHSSYFDYWGQGVMVTVSSASTKGPSVFPLAPCSRSTSESTAALGCLVKDYFPEPVTVSWNSGALTSGVHTFPAVLQSSGLYSLSSVVTVPSSNFGTQTYTCNVDHKPSNTKVDKTVERKCCVECPPCPAPPVAGPSVFLFPPKPKDTLMISRTPEVTCVVVDVSHEDGEVQFNWYVDGVEVHNAKTKPREEQFNGTFRVVSVLTVVHQDWLNGKEYKCKVSNKGLPAPIEKTISKTKGQPREPQVYTLPPSREEMTKNQVSLTCLVKGFYPSDIAVEWESNGQPENNYKTTPPMLDSDGSFFLYSKLTVDKSRWQQGNVFSCSVMHEALHNHYTQKSLSLSPGKLEPPPSTVSNMATVAVLVVLGAAIVTGAVVAFVMKMRRRNTGGKGGDYALAPGSQTSDLSLPDCKVMVHDPHSLA
notes: as m1; positions are Eu numbers; copies: 2 + 2
B2: human IgG2 anti-mouse CD40 surface displayed antibody, Fc mutant P271G/T299M (antibody, name in EU numbering)
light chain (with the P2A rest): B1 light chain (with the P2A rest)
heavy chain: B1 heavy chain with G293S, T294M
notes: as for B1
B3: human IgG2 anti-mouse CD40 surface displayed antibody, Fc mutant P271G/P331T (antibody, name in EU numbering)
light chain (with the P2A rest): B1 light chain (with the P2A rest)
heavy chain: B1 heavy chain with G293S, P326T
notes: as for B1
B4: human IgG2 anti-mouse CD40 surface displayed antibody, Fc mutant P271G/S298K (antibody, name in EU numbering)
light chain (with the P2A rest): B1 light chain (with the P2A rest)
heavy chain: B1 heavy chain with G293K
notes: as for B1
B5: human IgG2 anti-mouse CD40 surface displayed antibody, Fc mutant P271G/T299A (antibody, name in EU numbering)
light chain (with the P2A rest): B1 light chain (with the P2A rest)
heavy chain: B1 heavy chain with G293S, T294A
notes: as for B1
B6: human IgG2 anti-mouse CD40 surface displayed antibody, Fc mutant P271G/S298E (antibody, name in EU numbering)
light chain (with the P2A rest): B1 light chain (with the P2A rest)
heavy chain: B1 heavy chain with G293E
notes: as for B1
B7: human IgG2 anti-mouse CD40 surface displayed antibody, Fc mutant P271G/P331C (antibody, name in EU numbering)
light chain (with the P2A rest): B1 light chain (with the P2A rest)
heavy chain: B1 heavy chain with G293S, P326C
notes: as for B1
B8: human IgG2 anti-mouse CD40 surface displayed antibody, Fc mutant P271G/P329S (antibody, name in EU numbering)
light chain (with the P2A rest): B1 light chain (with the P2A rest)
heavy chain: B1 heavy chain with G293S, P324S
notes: as for B1
B9: human IgG2 anti-mouse CD40 surface displayed antibody, Fc mutant P271G/S298D (antibody, name in EU numbering)
light chain (with the P2A rest): B1 light chain (with the P2A rest)
heavy chain: B1 heavy chain with G293D
notes: as for B1
B10: human IgG2 anti-mouse CD40 surface displayed antibody, Fc mutant P271G/S298L (antibody, name in EU numbering)
light chain (with the P2A rest): B1 light chain (with the P2A rest)
heavy chain: B1 heavy chain with G293L
notes: as for B1
B11: human IgG2 anti-mouse CD40 surface displayed antibody, G327A (antibody, name in EU numbering)
light chain (with the P2A rest): B1 light chain (with the P2A rest)
heavy chain: B1 heavy chain with G266P, G293S, G322A
notes: m1 with this Fc mutation (Eu numbering); copies: 2 + 2
B12: human IgG2 anti-mouse CD40 surface displayed antibody, L328E/I332T (antibody, name in EU numbering)
light chain (with the P2A rest): B1 light chain (with the P2A rest)
heavy chain: B1 heavy chain with G266P, G293S, L323E, I327T
notes: m1 with these Fc mutations (Eu numbering); copies: 2 + 2
B13: human IgG2 anti-mouse CD40 surface displayed antibody, G327A/A330R (antibody, name in EU numbering)
light chain (with the P2A rest): B1 light chain (with the P2A rest)
heavy chain: B1 heavy chain with G266P, G293S, G322A, A325R
notes: as for B12
B14: human IgG2 anti-mouse CD40 surface displayed antibody, G327A/I332E (antibody, name in EU numbering)
light chain (with the P2A rest): B1 light chain (with the P2A rest)
heavy chain: B1 heavy chain with G266P, G293S, G322A, I327E
notes: as for B12
B15: human IgG2 anti-mouse CD40 surface displayed antibody, G327A/A330V (antibody, name in EU numbering)
light chain (with the P2A rest): B1 light chain (with the P2A rest)
heavy chain: B1 heavy chain with G266P, G293S, G322A, A325V
notes: as for B12
B16: human IgG2 anti-mouse CD40 surface displayed antibody, L328F (antibody, name in EU numbering)
light chain (with the P2A rest): B1 light chain (with the P2A rest)
heavy chain: B1 heavy chain with G266P, G293S, L323F
notes: as for B11
B17: human IgG2 anti-mouse CD40 surface displayed antibody, L328Y (antibody, name in EU numbering)
light chain (with the P2A rest): B1 light chain (with the P2A rest)
heavy chain: B1 heavy chain with G266P, G293S, L323Y
notes: as for B11
B18: human IgG2 anti-mouse CD40 surface displayed antibody, L328W (antibody, name in EU numbering)
light chain (with the P2A rest): B1 light chain (with the P2A rest)
heavy chain: B1 heavy chain with G266P, G293S, L323W
notes: m1 with this Fc mutation (Eu numbering); Not the anti-human OX40 antibody Mut_1, which carries the same Fc mutation; copies: 2 + 2
B19: human IgG2 anti-mouse CD40 surface displayed antibody, G327A/I332A (antibody, name in EU numbering)
light chain (with the P2A rest): B1 light chain (with the P2A rest)
heavy chain: B1 heavy chain with G266P, G293S, G322A, I327A
notes: as for B12
B20: human IgG2 anti-mouse CD40 surface displayed antibody, G327A/I332C (antibody, name in EU numbering)
light chain (with the P2A rest): B1 light chain (with the P2A rest)
heavy chain: B1 heavy chain with G266P, G293S, G322A, I327C
notes: as for B12

Numbering of substitutions follows the chain as printed. Numbers in names are those of the source.

For one test, the target named is T1, Biotin-FcγRIIB (human, UniProt P31994 43-217, limits assumed, biotin-labelled).
T1 construct: Bought, biotin-labelled; used at 1 µg/ml for staining and sorting; also called human FcγRIIB; CD32b
T1 sequence (looked up): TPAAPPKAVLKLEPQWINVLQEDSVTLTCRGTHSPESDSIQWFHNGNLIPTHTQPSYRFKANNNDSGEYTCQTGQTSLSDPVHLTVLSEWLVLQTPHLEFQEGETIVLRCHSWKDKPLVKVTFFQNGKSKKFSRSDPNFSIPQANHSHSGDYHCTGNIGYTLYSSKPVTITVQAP
The test can be described thus: FACS sorting of displayed Fc library on biotin-FcγRIIB, NGS; reference P271G.
For the molecule B1, the “Increased factor 2 c Site 1 (combined/point mutation)” value was 2.8.

For the molecule B2, the “Increased factor 2 c Site 1 (combined/point mutation)” value stood at 1.3.

On to B3, for which the “Increased factor 2 c Site 1 (combined/point mutation)” value was 9.1.

As for B4, the “Increased factor 2 c Site 1 (combined/point mutation)” value is 2.9.

B5: the “Increased factor 2 c Site 1 (combined/point mutation)” value worked out at 1.8.

Consider B6, for which the “Increased factor 2 c Site 1 (combined/point mutation)” value is 84.2.

With B7, the “Increased factor 2 c Site 1 (combined/point mutation)” value amounted to 39.6.

B8: the “Increased factor 2 c Site 1 (combined/point mutation)” value amounted to 13.1.

In the case of B9, the “Increased factor 2 c Site 1 (combined/point mutation)” value came to 1.9.

For the molecule B10, the “Increased factor 2 c Site 1 (combined/point mutation)” value worked out at 53.2.

Another test concerns the target Biotin-FcγRIIB (human) (UniProt P31994). The test is described as follows: NGS of 3T3 display library Cmix flow-sorted for FcγRIIB binding.
Take “human IgG2 anti-mouse CD40 surface displayed antibody, V234M/S267E/S298G/I332L”: the enrichment factor, percentage after 1st sorting/percentage before sorting was found to be 16.5; the enrichment factor, percentage after 2nd sorting/percentage after 1st sorting was 64.4; the enrichment factor, percentage after 3rd sorting/percentage after 2nd sorting was determined as 0.66; the enrichment factor, percentage after 3rd sorting/percentage before sorting is 695. Moreover, the increased factor, mutant enrichment factor/wild-type enrichment factor stood at 1850; the percentage after 1st sorting turned out to be 0.01%; the percentage after 2nd sorting is 0.46%; the percentage after 3rd sorting was found to be 0.3%. The molecule also registered a percentage before sorting of 0%.

“human IgG2 anti-mouse CD40 surface displayed antibody, P233F/V266L/S298L/L328W” registered an enrichment factor, percentage after 2nd sorting/percentage after 1st sorting of 94.7; an enrichment factor, percentage after 3rd sorting/percentage after 2nd sorting of 1.79; a percentage after 1st sorting of 0%; a percentage after 2nd sorting of 0.16%. In addition, the percentage after 3rd sorting came out at 0.29%.

Molecule “human IgG2 anti-mouse CD40 surface displayed antibody, A235W/V266L/S298L/L328W” came in with an enrichment factor, percentage after 2nd sorting/percentage after 1st sorting of 70.1; an enrichment factor, percentage after 3rd sorting/percentage after 2nd sorting of 4.67; a percentage after 1st sorting of 0%; a percentage after 2nd sorting of 0.05%. The percentage after 3rd sorting came to 0.22%.

Another test has as its target T2, Biotin-FcγRIIB (human FcγRIIB, Sino Biological) (human, UniProt P31994 43-217, limits assumed, biotin-labeled).
T2 construct: Used at 1 µg/ml with Streptavidin-APC for flow cytometry and sorting; also called CD32b
T2 sequence (looked up): T1 sequence (looked up)
The test can be described thus: NGS after FACS sort of 3T3-displayed Library4 for biotin-FcγRIIB binding.
Consider B11, for which the “Enrichment factor (percentage after sorting/percentage before sorting)” value is 5.05 and the “Increased factor (enrichment factor/wild-type enrichment factor)” value turned out to be 3.38.

In the case of B12, the “Enrichment factor (percentage after sorting/percentage before sorting)” value was 55.1 and the “Increased factor (enrichment factor/wild-type enrichment factor)” value came out at 36.9.

Consider B13, for which the “Enrichment factor (percentage after sorting/percentage before sorting)” value worked out at 98.3 and the “Increased factor (enrichment factor/wild-type enrichment factor)” value was 65.8.

As to B14, the “Enrichment factor (percentage after sorting/percentage before sorting)” value was found to be 126 and the “Increased factor (enrichment factor/wild-type enrichment factor)” value amounted to 84.1.

Consider B15, for which the “Enrichment factor (percentage after sorting/percentage before sorting)” value was 6.98 and the “Increased factor (enrichment factor/wild-type enrichment factor)” value is 4.67.

As to B16, the “Enrichment factor (percentage after sorting/percentage before sorting)” value is 563 and the “Increased factor (enrichment factor/wild-type enrichment factor)” value worked out at 377.

For B17, the “Enrichment factor (percentage after sorting/percentage before sorting)” value came to 3.38 and the “Increased factor (enrichment factor/wild-type enrichment factor)” value is 2.26.

Take B18: the “Enrichment factor (percentage after sorting/percentage before sorting)” value turned out to be 33.2 and the “Increased factor (enrichment factor/wild-type enrichment factor)” value amounted to 22.2.

On to B19, for which the “Enrichment factor (percentage after sorting/percentage before sorting)” value is 29.2 and the “Increased factor (enrichment factor/wild-type enrichment factor)” value was 19.5.

For B20, the “Enrichment factor (percentage after sorting/percentage before sorting)” value stood at 11.4 and the “Increased factor (enrichment factor/wild-type enrichment factor)” value came to 7.64.

The next test concerns the target T1, Biotin-FcγRIIB. The test can be described thus: FACS sorting of displayed Fc library on biotin-FcγRIIB, NGS.
For the molecule B1, the “Enrichment factor (after/before sorting)” value was 9.73 and the “Increased factor a (enrichment factor/wild-type enrichment factor)” value turned out to be 13.

In the case of B2, the “Enrichment factor (after/before sorting)” value came to 4.74 and the “Increased factor a (enrichment factor/wild-type enrichment factor)” value was found to be 6.33.

In the case of B3, the “Enrichment factor (after/before sorting)” value was found to be 32.3 and the “Increased factor a (enrichment factor/wild-type enrichment factor)” value stood at 43.2.

Turning to B4, the “Enrichment factor (after/before sorting)” value came to 10.2 and the “Increased factor a (enrichment factor/wild-type enrichment factor)” value worked out at 13.6.

Take B5: the “Enrichment factor (after/before sorting)” value was found to be 6.28 and the “Increased factor a (enrichment factor/wild-type enrichment factor)” value was found to be 8.39.

For the molecule B6, the “Enrichment factor (after/before sorting)” value is 298 and the “Increased factor a (enrichment factor/wild-type enrichment factor)” value stood at 398.

B7: the “Enrichment factor (after/before sorting)” value came out at 140 and the “Increased factor a (enrichment factor/wild-type enrichment factor)” value turned out to be 187.

As for B8, the “Enrichment factor (after/before sorting)” value worked out at 46.2 and the “Increased factor a (enrichment factor/wild-type enrichment factor)” value was 61.8.

Regarding B9, the “Enrichment factor (after/before sorting)” value was 6.78 and the “Increased factor a (enrichment factor/wild-type enrichment factor)” value was 9.06.

B10: the “Enrichment factor (after/before sorting)” value was 188 and the “Increased factor a (enrichment factor/wild-type enrichment factor)” value turned out to be 252.
